Data on five variants can be found in IntAct's records for PubMed 19019158.

Sequences and labels used below:
B1: TrfB transcriptional repressor protein (Escherichia coli), P03052 (parent)
chain: MKKRLTESQFQEAIQGLEVGQQTIEIARGVLVDGKPQATFATSLGLTRGAVSQAVHRVWAAFEDKNLPEGYARVTAVLPEHQAYIVRKWEADAKKKQETKR

Variants of B1 are the subject of this assay. As to conditions: with korb2_ecolx korB.
In the case of MKKRLTESQFQEAIQGLEVGQQTIEIARGVLVDGKPQATFATSLGLTRGAVSQAVHRVWAAFEDKNLPEGYARVTAVLPEHQAAIVRKWEADAKKKQETKR, the “effect of a mutation on the interaction” value is “disrupting interaction strength”.
The value for MKKRLTESQFQEAIQGLEVGQQTIEIARGVLVDGKPQATFATSLGLTRGAVSQAVHRVWAAFEDKNLAEGYARVTAVLPEHQAYIVRKWEADAKKKQETKR was “decreasing interaction strength”.
To MKKRLTESQFQEAIQGLEVGQQTIEIARGVLVDGKPQATFATSLGLTRGAVSQAVHRVWAAFEDKNLPEGYARATAVLPEHQAYIVRKWEADAKKKQETKR belongs “disrupting interaction strength”; to MKKRLTESQFQEAIQGLEVGQQTIEIARGVLVDGKPQATFATSLGLTRGAVSQAVHRVWAAFEDKNLPEGYARVTAVAPEHQAYIVRKWEADAKKKQETKR, “disrupting interaction strength”; to MKKRLTESQFQEAIQGLEVGQQTIEIARGVLVDGKPQATFATSLGLTRGAVSQAVHRVWAAFEDKNLPEGYARVTAVLPEHAAYIVRKWEADAKKKQETKR, “decreasing interaction strength”.
